Results published in paper PMC5975642 (2018).

B1: LCN2 (protein)
chain: QDSTQNLIPAPSLLTVPLQPDFRSDQFRGRWYVVGLAGNAVQKKTEGSFTMYSTIYELQENNSYNVTSILVRDQDQGCRYWIRTFVPSSRAGQFTLGNMHRYPQVQSYNVQVATTDYNQFAMVFFRKTSENKQYFKITLYGRTKELSPELKERFTRFAKSLGLKDDNIIFSVPTDQCIDN
B2: LCN2 (protein)
chain: B1 chain
modifications: biotinylated LCN2

How the values were obtained:
[1] = biological target: T1, MC4R (Homo sapiens, UniProt P32245); test: cell competition binding against biotinylated alpha-MSH
[2] = biological target: T1, MC4R; test: cell saturation binding

T1 sequence (P32245 whole entry): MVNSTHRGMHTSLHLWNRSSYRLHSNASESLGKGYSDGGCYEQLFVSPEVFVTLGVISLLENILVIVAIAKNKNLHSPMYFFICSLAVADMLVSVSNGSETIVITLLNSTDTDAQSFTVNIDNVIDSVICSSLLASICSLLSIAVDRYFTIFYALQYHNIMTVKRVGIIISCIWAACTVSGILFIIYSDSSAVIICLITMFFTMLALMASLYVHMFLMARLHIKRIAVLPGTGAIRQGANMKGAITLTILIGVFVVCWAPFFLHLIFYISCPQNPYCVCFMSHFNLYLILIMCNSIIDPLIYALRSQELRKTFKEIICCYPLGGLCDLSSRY

Binder	Ki [1]	Kd [2]
B1	46.3 nM	
B2		51.4 nM
